Our source for the PCNA-Ub:PCNA precipitation ratio values is paper PMC3753651.

For one assay, the target named is GFP-Polη (UniProt Q9Y253). As to the kind of experiment: co-IP.
In assay [1] the target is GFP-mRev1 (not stated (label mRev1)) (UniProt Q920Q2). The assay can be described thus: co-IP.

Take “PCNA-Ub (C-terminal fusion of ubiquitin to PCNA-K164R) (from UniProt P12004 1-261; P0CG48 1-76)”: the PCNA-Ub:PCNA precipitation ratio was found to be 3.5 with GFP-Polη and 8.5 in assay [1].
